In patent US20120129778A1 (GlaxoSmithKline, published 2012):
Residue numbers refer to the chain shown, from its start. Names and notes keep the numbering of the source. Blank lines part the entries; values can stand above or below the binder they belong to.

What was measured:
[1] = molecular target: T1, recombinant human TGF-β RII/Fc chimera protein (R&D systems, cat no. 341-BR) (human, UniProt P37173 23-166); assay: SPR (BIACORE 3000), hTGFb-RII/Fc coupled to a CM5 chip, co-inject; injection 2 = mixture of DOM23h-437-6 (100 nM) and DOM23h-271-3 (500 nM) on a surface saturated with DOM23h-437-6
T1 construct: extracellular domain; Bought protein, expressed in the mouse myeloma line NS0; also called hTGFb-RII/Fc; hTFGβ-RII-Fc; not shown: Fc region of human IgG1
Description: (§1) The SPR experiments were performed on a BIACORE™ 3000 instrument (BIACORE™, GE […]®, Sweden). hTGFb-RII/Fc antigen at 50 ug/ml in 10 mM sodium acetate buffer, pH 4 (BIACORE™, GE […]®, Sweden) was coupled to a CM5 sensor chip (BIACORE™, GE […]®, Sweden), according to the manufacturer's instructions. Approximately 5500 RUs of antigen were coupled. A blank flow cell was used as a reference. Purified dAbs were diluted in HBS-EP buffer (BIACORE™, GE […]®, Sweden) and flowed over the antigen-coated and blank flow cells at a rate of 30 μl/minute using the co-inject command. The coinject command allows the injection of a second sample immediately after the first one. The first injection consisted of a single dAb and the second injection consisted of a mixture of the first dAb and a second dAb. All dAbs were used at concentrations high enough to bind the antigen surface with maximal capacity. If the maximal binding capacity of the antigen surface by the first dAb can be exceeded by injecting the mixture of the two dAbs, the second dAb is likely to […] a different binding site or epitope on the antigen. If no further binding is observed following the second injection, then the two dAbs are likely to compete for the same antigen binding site. […]

[2] = molecular target: T1, recombinant human TGF-β RII/Fc chimera …; assay: ELISA, plate coated with human TGF-β RII/Fc, dAb supernatant, anti-FLAG detection
Description: dAb clones that bound human TGF-β RII/Fc were identified by an ELISA. 96-well MAXISORP™ immuno plates (Nunc, Denmark) were coated with human TGF-β RII/Fc overnight at 4° C. The wells were washed three times with PBST and then blocked with 1% TWEEN™ in PBS (1% TPBS) for 1 hour at room temperature. The block was removed and a 1:1 mixture of 1% TPBS and dAb supernatant was added for 1 hour at room temperature. The plate was washed with three times with PBST and the detection antibody (Monoclonal anti-FLAG M2-peroxidase antibody, Sigma-aldrich, UK) was added and incubated for 1 hour at room temperature. The plates were developed using a colourimetric substrate (SUREBLUE™ 1-component TMB Microwell Peroxidase solution, KPL, Maryland, USA) and the optical density (OD) measured at […], the OD₄₅₀ being proportional to the amount of bound detection antibody.

[3] = molecular target: T1, recombinant human TGF-β RII/Fc chimera …; assay: SPR (BIACORE 3000), hTGFb-RII/Fc coupled to CM5 chip, 100 nM dAb co-injected with 100 nM DOM23h-437-9 (competitor)
Description: as §1

[4] = molecular target: human TGF-β receptor type II on human cells (A549, SBE-bla HEK 293T) (human, UniProt P37173 23-567); assay: cell-based or functional assay
[5] = molecular target: T1, recombinant human TGF-β RII/Fc chimera …; assay: SPR (BIACORE 3000), hTGFb-RII/Fc coupled to a CM5 chip, co-inject; injection 2 = mixture of DOM23h-437-6 (100 nM) and DOM23h-439-6 (500 nM) on a surface saturated with DOM23h-437-6
Description: as §1

[6] = molecular target: T1, recombinant human TGF-β RII/Fc chimera …; assay: SPR (BIACORE 3000), hTGFb-RII/Fc coupled to a CM5 chip, co-inject; injection 1 = DOM23h-437-6 alone at 100 nM
Description: as §1

[7] = molecular target: T1, recombinant human TGF-β RII/Fc chimera …; assay: SPR (BIACORE 3000), hTGFb-RII/Fc coupled to a CM5 chip, co-inject; injection 1 = DOM23h-437-9 alone at 100 nM
Description: as §1

T1 sequence (P37173 23-166, change not shown): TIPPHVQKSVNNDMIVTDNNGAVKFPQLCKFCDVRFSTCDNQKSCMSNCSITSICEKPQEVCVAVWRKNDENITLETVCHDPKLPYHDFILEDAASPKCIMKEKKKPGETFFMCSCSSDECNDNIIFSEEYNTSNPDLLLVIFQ
Chain of human TGF-β receptor type II on human cells (A549, SBE-bla HEK 293T) (P37173 23-567): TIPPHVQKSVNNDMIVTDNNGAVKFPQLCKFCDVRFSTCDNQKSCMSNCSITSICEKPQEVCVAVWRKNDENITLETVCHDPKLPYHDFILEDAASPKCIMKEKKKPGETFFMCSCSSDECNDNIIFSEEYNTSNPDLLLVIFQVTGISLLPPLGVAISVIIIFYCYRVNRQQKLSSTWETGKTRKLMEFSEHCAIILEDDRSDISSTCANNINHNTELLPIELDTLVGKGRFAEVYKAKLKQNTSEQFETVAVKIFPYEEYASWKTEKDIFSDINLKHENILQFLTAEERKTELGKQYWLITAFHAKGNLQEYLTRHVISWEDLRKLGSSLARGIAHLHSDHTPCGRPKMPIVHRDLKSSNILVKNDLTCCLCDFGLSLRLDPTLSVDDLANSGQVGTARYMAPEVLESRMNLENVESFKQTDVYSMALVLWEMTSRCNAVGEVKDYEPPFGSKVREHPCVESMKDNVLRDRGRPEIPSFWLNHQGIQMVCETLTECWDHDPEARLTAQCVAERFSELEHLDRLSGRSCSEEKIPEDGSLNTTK

- binding result [1]: binds
B1: DOM23h-271-3 (other)
VH: EVQLLESGGGLVQPGGSLRLSCTASGFTFTEYRMWWVRQAPGKGLEWVSLIEPIGNRTYYADSVKGRFTISRDNSKNTLYLQMNSLRAEDTAVYYCAKQIPGHMWTANPRSDYWGQGTQVTVSS
notes: VH dAb

- binding result [2]: binds
B2: DOM23h-271 (other)
VH: B1 VH with T23A, L50S, M104K, P109S, S111F, Q119L
notes: VH dAb

- binding result [3]: binds
B3: DOM23h-271-12 (other)
VH: B1 VH with D62N, K65R
notes: VH dAb; also called DOM23h-271-3 + D61N + K64R

- potency in the A549 IL-11 release assay relative to DOM23h-262 [4]: 54 fold
B4: DOM23h-262-6 (other)
VH: EVQLLESGGGLVQPGGSLRLSCAASGFTFFNYEMAWARQAPGKGLEWVSLISAEGTRTYYANSVKGRFTISRDNSKNTLYLQMNSLRAEDTAVYYCAKRRDASMGHTTRRFDHWGQGTLVTVSS

- binding result [2]: binds
B5: DOM23h-262 (other)
VH: B4 VH with N62D, H113Y
notes: Domain antibody (dAb), human immunoglobulin single variable domain, soluble monomer

- potency in the A549 IL-11 release assay relative to DOM23h-262 [4]: 540 fold
B6: DOM23h-262-10 (other)
VH: B4 VH with Q39R, E54D, K65R, H113Y, W114S

- binding result [2]: binds
B7: DOM23h-348 (other)
chain: EVQLLESGGGLVQPGGSLRLSCAASGFTFSDYDMAWARQAPGKGLEWVSRISHSGYSTYYADSVKGRFTISRDNSKNTLYLQMNSLRAEDTAVYYCAKRSWDGVHAQFDYWGQGTLVTVSS
notes: Naive dAb

- binding result [2]: binds
B8: DOM23h-438 (other)
chain: EVQLLESGGGLVQPGGSLRLSCAASGFTFAQGDMWWVRQAPGKGLEWVSRIGMDGDKTYYADSVKGRFTISRDNSKNTLYLQMNSLRAEDTAVYYCAKGPSSTSPFDYWGQGTLVTVSS
notes: Naive dAb

- binding result [5]: binds
B9: DOM23h-439-6 (other)
VH: EVQLLESGGGLVRPGGSLRLSCAASGFTFGTEQMWWVRQAPGKGLEWVSRIDSPGGRTYYADSVRGRFTISRDNSKNTLYLQMNSLRAEDTAVYYCAKRHAAGVSGTYFDYWGQGTLVTVSS
notes: VH dAb, already contains K64R

- binding result [2]: binds
B10: DOM23h-439 (other)
VH: B9 VH with R13Q, R65K
notes: VH dAb

- binding result [3]: binds
B11: DOM23h-439-8 (other)
VH: B9 VH with D62N
notes: VH dAb; also called DM23h-439-8; DOM23h-439-6 + D61N + K64R

- binding result [2]: binds
B12: DOM23h-437 (other)
VH: EVQLLESGGGLVQPGGSLRLSCAASGFTFSDYRMWWVRQAPGKGLEWVSAIDSQGHTTYYADSVKGRFTISRDNSKNTLYLQMNSLRAEDTAVYYCAKYGGYFDYWGQGTLVTVSS
notes: VH dAb

- binding result [2]: binds
B13: DOM23h-440 (other)
chain: B12 VH with S30T, Y32D, S53P, H56Q, T57H, Y99E, G100L, G101L, Y102S
notes: Naive dAb

- binding result [2]: binds
B14: DOM23h-435 (other)
chain: B12 VH with S21T, S30T, Y32D, S53P, H56Q, T57H, Y99H, G100N, G101S, Y102S
notes: Naive dAb

- binding result [2]: binds
B15: DOM23h-33 (other)
chain: B12 VH with D31Q, D52A, S53P, Q54S, H56D, T57N, Y99H, G100R, G101T, Y102S
notes: Naive dAb (immunoglobulin single variable domain)

- binding result [6]: binds
B16: DOM23h-437-6 (other)
VH: B12 VH with A24T
notes: VH dAb

- binding result [2]: binds
B17: DOM23h-251 (other)
chain: EVQLLESGGGLVQPGGSLRLSCAASGFTFSDYDMWWVRQAPGKGLEWVSKITQKGDFTYYADSVKGRFTISRDNSKNTLYLQMNSLRAEDTAVYYCAKDATHFDYWGQGTLVTVSS
notes: Naive dAb

- binding result [2]: binds
B18: DOM23h-436 (other)
chain: EVQLLESGGGLVQPGGSLRLSCAASGFTFSDYKMGWVRQAPGKGLEWVSSIWPNGGLTYYADSVKGRFTISRDNSKNTLYLQMNSLRAEDTAVYYCAKDHMGFDYWGQGTLVTVSS
notes: Naive dAb

- binding result [7]: binds
B19: DOM23h-437-9 (other)
VH: B12 VH with A24T, D62N, K65R
notes: VH dAb; also called DOM437-9
